This note sets out measurements from patent US20060240570A1.

B1: phagemid CS1-2p, displayed peptide … (peptide)
peptide: CSLFYLWDQDRCS
modifications: disulfide 1-12 (inferred); also: displayed on phagemid
B2: phagemid CS1-11p, displayed peptide … (peptide)
peptide: CSFRYQWDMFRCS
modifications: disulfide 1-12 (inferred); also: displayed on phagemid
B3: phagemid CS1-31p, displayed peptide … (peptide)
peptide: CSFFYSLCYCWCS
modifications: disulfide (positions not given here); also: disulfide pairing among 4 Cys not given here, displayed on phagemid
B4: phagemid CS1-6p, displayed peptide … (peptide)
peptide: CSFRYLWDQDRCS
modifications: disulfide 1-12 (inferred); also: displayed on phagemid
B5: phagemid CS1-9p, displayed peptide … (peptide)
peptide: CSGLYPWDMFRCS
modifications: disulfide 1-12 (inferred); also: displayed on phagemid
B6: phagemid CS1-29p, displayed peptide … (peptide)
peptide: CSGLYPWDYFMCS
modifications: disulfide 1-12 (inferred); also: displayed on phagemid

Positions of bridges follow the written chain, without caps; N, C: chain ends. No end group written: not given here.

The first assay addresses unrelated control antibody. The experiment in a line: phage ELISA, 10^10 phagemid, wells coated with control mAb. (In an ELISA, binding on a coated surface is turned into a signal by an enzyme label.)
With B1, the ELISA (absorbance units) (absorbance units) amounted to 0.228.
For B2, the ELISA (absorbance units) (absorbance units) is 0.242.
B3 came in with an ELISA (absorbance units) (absorbance units) of 0.125.
The same measure, in the same setting: as for B4, the figure is 0.203; as for B5, 0.213; as for B6, 0.148.

The target of a further assay is unrelated control antibody. The experiment in a line: phage ELISA, 10^9 phagemid, wells coated with control mAb.
Regarding B1, the ELISA (absorbance units) (absorbance units) worked out at 0.199.
The molecule B2 had an ELISA (absorbance units) (absorbance units) of 0.258.
B3 showed an ELISA (absorbance units) (absorbance units) of 0.118.
On the same count and under the same terms, then B4, with 0.172; and B5, with 0.204; and B6, with 0.147.

Another assay deals with unrelated control antibody. The experiment in a line: phage ELISA, 10^8 phagemid, wells coated with control mAb.
The molecule B1 gave an ELISA (absorbance units) (absorbance units) of 0.188.
B2 had an ELISA (absorbance units) (absorbance units) of 0.252.
In turn, B3 displayed an ELISA (absorbance units) (absorbance units) of 0.116.
B4 registered an ELISA (absorbance units) (absorbance units) of 0.173.
The same measure, in the same setting: then B5, with 0.209; and B6, with 0.125.
